By % Inhibition is commonly meant how much of the control response was suppressed.

These results are taken from patent US20100015637A1 (AbbVie / Abbott, published 2010).

For assay [1], the target named is human PlGF-1 comprising amino acids 1-137 produced in human embryonic kidney cells (human) (UniProt P49763). In words: Format 2 …, capture MAb264, detection Pb264; sFlt-1 77 pmol/L (ratio 2.5).
The target is the same in assay [2]. Nature of the assay: Format 1 …, capture 2-826-335, detection 1-255-713; sFlt-1 1533 pmol/L (ratio 50).
The target is the same in assay [3]. Nature of the assay: Format 1 …, capture 2-826-335, detection 1-255-713; sFlt-1 9200 pmol/L (ratio 300).
Assay [4] shares this target. Nature of the assay: Format 3 Quantikine ELISA, capture MAb264, detection Pb264; sFlt-1 1533 pmol/L (ratio 50). On the technique in general: In an ELISA, binding on a coated surface is turned into a signal by an enzyme label.
Assay [5] concerns the target recombinant human PlGF-1 (comprising amino acids 1-131) expressed in E. coli (R&D Systems) (human) (UniProt P49763). Nature of the assay: … sandwich, capture MAb255, detection MAb826; antigen 15 pg/mL.
Assay [6] shares this target. Nature of the assay: … sandwich, capture MAb255, detection MAb826; antigen 250 pg/mL.
The target is the same in assay [7]. Nature of the assay: … sandwich, capture MAb255, detection pAb264; antigen 0 pg/mL (blank).
Assay [8] has the same target. Nature of the assay: … sandwich, capture MAb826, detection pAb264; antigen 750 pg/mL.
Assay [9] addresses T1, CHO human PlGF-1 fragment (comprising amino acids 17-131; ATCC PTA-8540) (human, UniProt P49763 35-221).
T1 sequence: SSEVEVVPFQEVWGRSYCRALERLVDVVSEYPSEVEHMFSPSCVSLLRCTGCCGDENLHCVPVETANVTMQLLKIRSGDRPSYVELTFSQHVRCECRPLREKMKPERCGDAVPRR
In words: … sandwich, capture MAb826, detection pAb264; antigen 60 pg/mL.

The target of assay [10] is T2, CHO human PlGF-1 comprising amino acids 1-137 (human PlGF-1-His (1-131), CHO 6305) (human, UniProt P49763 19-221, N-glycans at N21 (completely glycosylated) and N89 (partially glycosylated)).
T2 construct: Mature human PlGF-1 with 6xHis tag (137 amino acids); also called CHO (1-137)
T2 sequence: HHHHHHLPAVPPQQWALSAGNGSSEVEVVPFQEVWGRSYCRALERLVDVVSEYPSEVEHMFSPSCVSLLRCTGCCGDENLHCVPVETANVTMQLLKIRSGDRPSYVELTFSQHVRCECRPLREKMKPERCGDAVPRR
Described as above.

Assay [11] concerns the target T3, human PlGF-1 comprising amino acids 1-137 produced in human embryonic kidney cells (human, UniProt P49763 19-221).
T3 construct: Mature human PlGF-1 with 6xHis tag; also called HEK (1-137); full length HEK human PlGF-1 (1-137)
T3 sequence: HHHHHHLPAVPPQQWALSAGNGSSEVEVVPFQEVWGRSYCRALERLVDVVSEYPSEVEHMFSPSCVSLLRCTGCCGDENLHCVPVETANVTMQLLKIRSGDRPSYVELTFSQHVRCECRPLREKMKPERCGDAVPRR
The description is as above.

Assay [12] has as its target T4, human PlGF-1 fragment (comprising amino acids 17-131) produced in human embryonic kidney cells (human, UniProt P49763 35-221).
T4 sequence: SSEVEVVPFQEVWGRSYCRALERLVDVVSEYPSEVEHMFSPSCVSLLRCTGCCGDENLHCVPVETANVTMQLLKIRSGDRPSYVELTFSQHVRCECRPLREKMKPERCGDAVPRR
The assay is described as above.

Assay [13] concerns the target T1, CHO human PlGF-1 fragment (comprising …). In words: … sandwich, capture MAb826, detection pAb264; antigen 250 pg/mL.
The target of assay [14] is T2, CHO human PlGF-1 comprising amino acids …. The assay is described as above.
The target in assay [15] is T3, human PlGF-1 comprising amino acids …. The description is as above.
Assay [16] concerns the target T4, human PlGF-1 fragment (comprising amino …). Described as above.
Assay [17] addresses T1, CHO human PlGF-1 fragment (comprising …). Nature of the assay: … sandwich, capture MAb826, detection pAb264; antigen 750 pg/mL.
Assay [18] has as its target T2, CHO human PlGF-1 comprising amino acids …. The assay is described as above.
For assay [19], the target named is T3, human PlGF-1 comprising amino acids …. The description is as above.
The target in assay [20] is T4, human PlGF-1 fragment (comprising amino …). The description is as above.

Regarding “native sFlt-1, isolated from human placental tissue (from UniProt P17948 27-687) (receptor)”, the % Inhibition in assay [1] was determined as 37.2%; in assay [2], 92.5%; in assay [3] it was 95.9%; in assay [4], 52.1%. Further, the PlGF-1 Measured came out at 494 pg/mL in assay [1], 76.6 pg/mL in assay [2], 42.1 pg/mL in assay [3] and 415 pg/mL in assay [4].

B1: monoclonal antibody 1-255-713 (produced by murine hybridoma cell line 1-255-713, ATCC PTA-8536) (antibody, mouse IgG2a, V domains shown)
VH: QVHLQQSGAELMKPGASVKISCKATGYTFSSYWIEWVKQRPGHGLEWIGEILPGSVSNNFNEKFKDKATLTADPSSNTAYIQVSSLTSEDSAVYYCARSTGFYYGGNYFDHWGQGTTLAVSS
VL: DVVMTQTPLSLPVSPGDQASISCRSSQSLVHSNGHTYLHWYLQKPGQSPKLLIYKVSNRFSGVPDRVSGSGSGTDFTLKISRVEAEDLGVYFCSQSTHVPPTFGGGTKLEIKR
notes: also called MAb255
On to B1, for which the RLU in [5] is 22700 RLU; in assay [6] it was 298000 RLU; in assay [7], 14300 RLU.

B2: monoclonal antibody 2-826-335 (produced by murine hybridoma cell line 2-826-335, ATCC PTA-8539) (antibody, mouse IgG1, V domains shown)
VH: QVQLKQSGPGLVQPSQSLSITCTVSGFSLTTYGIHWVRQSPGKGLEWLGVMWSGGDTDYDAAFISRLSISKDNSKSQVFFKMNSLQANDTGIYYCARYRFYGMDYWGQGTSVTVSS
VL: AIQMTQSSSSFSVSLGDRVTITCKASEDIYNRFAWYQQKPGNAPRLLISGAASLEAGVPSRFSGSGSGQDYTLSITSLQTEDVATYYCQQYWSTPWTFGGGTKLEIKR
notes: also called MAb826
Regarding B2, the RLU was determined as 606000 RLU in [8]; 28200 RLU in [9]; 22200 RLU in [10]; 47700 RLU in [11]; 36900 RLU in [12]; 93600 RLU in assay [13]. The RLU in [14] was found to be 66100 RLU; in assay [15] it was 173000 RLU; in assay [16], 126000 RLU; in [17] it was 239000 RLU; in [18], 180000 RLU; in assay [19], 423000 RLU. Besides, the RLU in [20] turned out to be 336000 RLU.
